Measured values reported in patent publication US20260193293A1 (UNIVERSITY OF COPENHAGEN, published 2026).
Non-standard residues stand in square brackets, D forms with d. 2Nal = N[C@@H](Cc1ccc2ccccc2c1)C(=O)O

Assays:
[1] = target: T1, Sushi domains (SD1/2) protein of the GABAB1a (GB1a) subunit, recombinant; experiment: FP competition
T1 construct: domain: Sushi domains (SD1/2); also called SDs; sushi domain 1/2 (SD1/2) protein
Procedure: Fluorescence polarization (FP). FP assay was employed to determine the binding affinity of peptides in flat bottom black 384-well plates (Corning Life Science) using a Safire2 plate reader (Tecan). All experiments were conducted in 1×PBS (pH 7.4) containing 1% bovine serum albumin (BSA) at rt. The fluorescence polarization values were measured using excitation/emission wavelengths of 530/580 nm. […] For saturation assay, the millipolarization values were measured after mixing of probes with 12 serial 1 to 1 diluted concentrations of Sushi domains (SD1/2) protein. All experiments were performed in triplicate and the data were plotted to the one-site binding model using GraphPad Prism 9 to calculate the Kd of probes. […] The experiments were performed at least in triplicate and the data were fitted to the sigmoidal dose response curve using GraphPad Prism 9 to obtain the IC₅₀ of peptides. The Kᵢ values were calculated according to Nikolovska-Coleska et al³¹⁰.

[2] = target: T2, native full-length GB1a subunit from mouse brain membrane fraction (mouse, UniProt Q9WV18 20-960); experiment: pull-down from mouse brain lysate, immunoblot
T2 construct: Detected by immunoblot after pull-down from brain lysate; also called native GB1a; native SD
T2 sequence (Q9WV18 20-960): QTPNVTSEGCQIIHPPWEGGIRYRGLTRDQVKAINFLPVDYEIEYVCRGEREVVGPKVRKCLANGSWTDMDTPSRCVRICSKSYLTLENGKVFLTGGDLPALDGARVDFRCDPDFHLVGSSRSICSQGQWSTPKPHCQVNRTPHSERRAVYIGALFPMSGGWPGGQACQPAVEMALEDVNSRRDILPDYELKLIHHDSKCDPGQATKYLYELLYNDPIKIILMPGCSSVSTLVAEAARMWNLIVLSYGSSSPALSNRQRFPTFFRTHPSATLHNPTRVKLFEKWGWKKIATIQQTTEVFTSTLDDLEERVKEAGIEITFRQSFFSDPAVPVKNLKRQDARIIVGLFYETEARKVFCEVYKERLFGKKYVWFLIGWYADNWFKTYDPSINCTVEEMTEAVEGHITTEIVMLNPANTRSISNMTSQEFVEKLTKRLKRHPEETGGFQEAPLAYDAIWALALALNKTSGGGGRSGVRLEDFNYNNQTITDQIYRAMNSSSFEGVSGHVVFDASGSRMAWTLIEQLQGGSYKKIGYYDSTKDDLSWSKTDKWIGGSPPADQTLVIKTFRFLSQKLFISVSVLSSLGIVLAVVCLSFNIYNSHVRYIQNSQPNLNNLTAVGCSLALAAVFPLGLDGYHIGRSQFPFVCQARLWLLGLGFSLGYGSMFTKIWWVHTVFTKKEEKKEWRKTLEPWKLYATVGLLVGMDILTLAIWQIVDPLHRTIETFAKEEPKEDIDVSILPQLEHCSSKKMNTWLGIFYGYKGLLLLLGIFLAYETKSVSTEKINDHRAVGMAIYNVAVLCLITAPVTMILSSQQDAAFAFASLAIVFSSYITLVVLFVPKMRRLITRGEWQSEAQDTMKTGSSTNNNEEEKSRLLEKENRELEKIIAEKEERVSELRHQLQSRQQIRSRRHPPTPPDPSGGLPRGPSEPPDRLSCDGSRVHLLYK
Procedure: Preparation of whole-brain lysates. Dissected adult mouse brains were placed in ice-cold homogenization buffer (320 mM sucrose, 4 mM HEPES, PH 7.5, 1 mM EDTA, 1 mM EGTA, supplemented with complete EDTA-free protease inhibitor mixture (Roche), 1 mL per 100 mg of brain) and homogenized with a glass-Teflon homogenizer (40 passes) on ice. […] The final brain lysates (at 2 mg/mL protein concentration) were directly used for immunoblot analysis (input lanes) or for pull-down experiments.
Pull-down experiments. […] For immunoblotting analysis, proteins were transferred to nitrocellulose membrane (0.2-μm pore size) (iBlot™ 2 Transfer Stacks, nitrocellulose, mini) using iBlot2 (invitrogen) and then probed with the primary antibodies mouse anti-SD clone 43N12 (1:250) or mouse monoclonal to GABAB1 subunit (abcam, 1:500) in combination with secondary peroxidase-coupled sheep anti-mouse IgG antibody (Cytiva, 1:5000).

T1 sequence (Q9Z0U4 29-158): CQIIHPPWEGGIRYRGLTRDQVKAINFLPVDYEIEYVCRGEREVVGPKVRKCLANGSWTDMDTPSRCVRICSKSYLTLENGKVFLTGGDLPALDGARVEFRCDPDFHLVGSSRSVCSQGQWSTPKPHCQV

Ki [1]: 31 µM | binding result [2]: no binding
B1: Scr-20, scrambled version of peptide 20 ((2Nala)EDSDDYDDIDDDW) (peptide)
peptide: Ac-[2Nal]EDSDDYDDIDDDW-NH2
SMILES: CC[C@H](C)[C@H](NC(=O)[C@H](CC(=O)O)NC(=O)[C@H](CC(=O)O)NC(=O)[C@H](Cc1ccc(O)cc1)NC(=O)[C@H](CC(=O)O)NC(=O)[C@H](CC(=O)O)NC(=O)[C@H](CO)NC(=O)[C@H](CC(=O)O)NC(=O)[C@H](CCC(=O)O)NC(=O)[C@H](Cc1ccc2ccccc2c1)NC(C)=O)C(=O)N[C@@H](CC(=O)O)C(=O)N[C@@H](CC(=O)O)C(=O)N[C@@H](CC(=O)O)C(=O)N[C@@H](Cc1c[nH]c2ccccc12)C(N)=O
